# Measured values published in US20040146964.
# Residue numbers refer to the chain shown, from its start.
# B1: recombinant C. elegans PHY-2 (protein)
# chain: DLFTAIADLQHMLGAEKDVTTIIDQYIEAERARLDDLRRYAHEYVHRNAHAESVGPEFVTNPINAYLLIKRLTTEWKKVENIMLNNKASTFLKNITDNRVRSEVKFPGEEDLSGAATALLRLQDTYSLDTLDLSNGIIGGEKVSNKLSGHDTFEVGRSAYNQKDYYHCLMWMQVALVKIENENPPTIEEWEILEYLAYSLYQQGNVRRALSLTKRLAKIAPNHPRAKGNVKWYEDMLQGKDMVGDLPPIVNKRVEYDGIVERDAYEALCRGEIPPVEPKWKNKLRCYLKRDKPFLKLAPIKVEILRFDPLAVLFKNVIHDSEIEVIKELASPKLKRATVQNSKTGELEHATYRISKSAWLKGDLDPVIDRVNRRIEDFTNLNQATSEELQVANYGLGGHYDPHFDFARKEEKNAFKTLNTGNRIATVLFYMSQPERGGATVFNHLGTAVFPSKNDALFWYNLRRDGEGDLRTRHAACPVLLGVKWVSNKWIHEKGQEFTRPCGLEEEVQENFIGDLSPYANDP
# B2: human PHD2 (protein)
# chain: MANDSGGPGGPSPSERDRQYCELCGKMENLLRCSRCRSSFYCCKEHQRQDWKKHKLVCQGSEGALGHGVGPHQHSGPAPPAAVPPPRAGAREPRKAAARRDNASGDAAKGKVKAKPPADPAAAASPCRAAAGGQGSAVAAEAEPGKEEPPARSSLFQEKANLYPPSNTPGDALSPGGGLRPNGQTKPLPALKLALEYIVPCMNKHGICVVDDFLGKETGQQIGDEVRALHDTGKFTDGQLVSQKSDSSKDIRGDKITWIEGKEPGCETIGLLMSSMDDLIRHCNGKLGSYKINGRTKAMVACYPGNGTGYVRHVDNPNGDGRCVTCIYYLNKDWDAKVSGGILRIFPEGKAQFADIEPKFDRLLFFWSDRRNPHEVQPAYATRYAITVWYFDADERARAKVKYLTGEKGVRVELNKPSDSVGKDVF
# B3: rat SM-20, full length (protein)
# chain: MPLGHIMRLDLEKIALEYIVPCLHEVGFCYLDNFLGEVVGDCVLERVKQLHYNGALRDGQLAGPRAGVSKRHLRGDQITWIGGNEEGCEAINFLLSLIDRLVLYCGSRLGKYYVKERSKAMVACYPGNGTGYVRHVDNPNGDGRCITCIYYLNKNWDAKLHGGVLRIFPEGKSFVADVEPIFDRLLFSWSDRRNPHEVQPSYATRYAMTVWYFDAEERAEAKKKFRNLTRKTESALAKD
# B4: human PHD3 (protein)
# chain: B3 chain with Y52C, N53T, N92S, V164I, V175I, S188F, A237T, K238E
# B5: recombinant human type I prolyl 4-hydroxylase (protein)
# chain 1: HPGFFTSIGQMTDLIHTEKDLVTSLKDYIKAEEDKLEQIKKWAEKLDRLTSTATKDPEGFVGHPVNAFKLMKRLNTEWSELENLVLKDMSDGFISNLTIQRQYFPNDEDQVGAAKALLRLQDTYNLDTDTISKGNLPGVKHKSFLTAEDCFELGKVAYTEADYYHTELWMEQALRQLDEGEISTIDKVSVLDYLSYAVYQQGDLDKALLLTKKLLELDPEHQRANGNLKYFEYIMAKEKDVNKSASDDQSDQKTTPKKKGVAVDYLPERQKYEMLCRGEGIKMTPRRQKKLFCRYHDGNRNPKFILAPAKQEDEWDKPRIIRFHDIISDAEIEIVKDLAKPRLRRATISNPITGDLETVHYRISKSAWLSGYENPVVSRINMRIQDLTGLDVSTAEELQVANYGVGGQYEPHFDFARKDEPDAFKELGTGNRIATWLFYMSDVSAGGATVFPEVGASVWPKKGTAVFWYNLFASGEGDYSTRHAACPVLVGNKWVSNKWLHERGQEFRRPCTLSELE
# chain 2: not shown
# B6: recombinant C. elegans PHY-1 (protein)
# chain: DLFTSIADMQNLLETERNIPKILDKYIHDEEERLVQLKKLSEEYSKKNEISIENGLKDITNPINAFLLIKRKIFDWKEIESKMNANKAGNVVSSITDDSYGVRYPTADDLSGAAIGLLRLQDTYRLDTKDLADGKIYADQGNYTFSAKDCFEIARAAYNEHDFYHTVMWMEEAQRRLGDEVEPTVEVEDILEYLAFALYKQNNLKHALKLTEELYKMNPTHPRAKGNVKWYEDLLEQEGVRRSDMRKNLPPIQNRRPDSVLGNTERTMYEALCRNEVPVSQKDISRLYCYYKRDRPFLVYAPIKVEIKRFNPLAVLFKDVISDDEVAAIQELAKPKLARATVHDSVTGKLVTATYRISKSAWLKEWEGDVVETVNKRIGYMTNLEMETAEELQIANYGIGGHYDPHFDHAKKEESKSFESLGTGNRIATVLFYMSQPSHGGGTVFTEAKSTILPTKNDALFWYNLYKQGDGNPDTRHAACPVLVGIKWVSNKWIHEKGNEFRRPCGLKSSDYERFVGDLGYGPEPRNAPNVSPNLAKDVWETL
# B7: recombinant human type II prolyl 4-hydroxylase (protein)
# chain 1: EFFTSIGHMTDLIYAEKELVQSLKEYILVEEAKLSKIKSWANKMEALTSKSAADAEGYLAHPVNAYKLVKRLNTDWPALEDLVLQDSAAGFIANLSVQRQFFPTDEDEIGAAKALMRLQDTYRLDPGTISRGELPGTKYQAMLSVDDCFGMGRSAYNEGDYYHTVLWMEQVLKQLDAGEEATTTKSQVLDYLSYAVFQLGDLHRALELTRRLLSLDPSHERAGGNLRYFEQLLEEEREKTLTNQTEAELATPEGIYERPVDYLPERDVYESLCRGEGVKLTPRRQKRLFCRYHHGNRAPQLLIAPFKEEDEWDSPHIVRYYDVMSDEEIERIKEIAKPKLARATVRDPKTGVLTVASYRVSKSSWLEEDDDPVVARVNRRMQHITGLTVKTAELLQVANYGVGGQYEPHFDFSRNDERDTFKHLGTGNRVATFLNYMSDVEAGGATVFPDLGAAIWPKKGTAVFWYNLLRSGEGDYRTRHAACPVLVGCKWVSNKWFHERGQEFLRPCGSTEVD
# chain 2: not shown
# What was measured:
# [1] = molecular target: T1, C. elegans HIF-α homologue, wild type
# T1 chain: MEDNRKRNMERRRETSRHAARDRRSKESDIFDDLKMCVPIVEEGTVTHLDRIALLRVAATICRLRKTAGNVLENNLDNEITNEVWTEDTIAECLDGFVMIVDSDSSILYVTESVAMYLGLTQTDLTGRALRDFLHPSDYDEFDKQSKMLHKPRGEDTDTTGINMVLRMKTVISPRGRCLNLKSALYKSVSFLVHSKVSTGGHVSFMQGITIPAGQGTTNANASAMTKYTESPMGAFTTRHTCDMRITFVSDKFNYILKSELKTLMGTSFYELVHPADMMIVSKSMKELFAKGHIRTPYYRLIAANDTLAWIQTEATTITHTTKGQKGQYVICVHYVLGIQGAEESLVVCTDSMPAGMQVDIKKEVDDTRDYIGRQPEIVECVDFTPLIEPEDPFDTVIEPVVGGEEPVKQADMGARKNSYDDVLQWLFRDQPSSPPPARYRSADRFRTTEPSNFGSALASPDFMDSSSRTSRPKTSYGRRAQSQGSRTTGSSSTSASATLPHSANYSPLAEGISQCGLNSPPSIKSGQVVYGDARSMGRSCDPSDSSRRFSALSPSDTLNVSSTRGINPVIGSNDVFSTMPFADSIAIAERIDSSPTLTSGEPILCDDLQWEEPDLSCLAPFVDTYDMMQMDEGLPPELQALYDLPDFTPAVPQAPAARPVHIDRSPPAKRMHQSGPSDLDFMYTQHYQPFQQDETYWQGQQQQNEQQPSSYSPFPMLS
# [2] = molecular target: full length HIF-1α double mutant P402A+P564G
# [3] = molecular target: human HIF-1α, full length wild type
# [4] = molecular target: T2, synthetic polypeptide of HIF-1α residues 556-574, unmodified
# T2 chain: DLDLEMLAPYIPMDDDFQL
# full length HIF-1α P402A, sequence (chain, as listed by the source P402A): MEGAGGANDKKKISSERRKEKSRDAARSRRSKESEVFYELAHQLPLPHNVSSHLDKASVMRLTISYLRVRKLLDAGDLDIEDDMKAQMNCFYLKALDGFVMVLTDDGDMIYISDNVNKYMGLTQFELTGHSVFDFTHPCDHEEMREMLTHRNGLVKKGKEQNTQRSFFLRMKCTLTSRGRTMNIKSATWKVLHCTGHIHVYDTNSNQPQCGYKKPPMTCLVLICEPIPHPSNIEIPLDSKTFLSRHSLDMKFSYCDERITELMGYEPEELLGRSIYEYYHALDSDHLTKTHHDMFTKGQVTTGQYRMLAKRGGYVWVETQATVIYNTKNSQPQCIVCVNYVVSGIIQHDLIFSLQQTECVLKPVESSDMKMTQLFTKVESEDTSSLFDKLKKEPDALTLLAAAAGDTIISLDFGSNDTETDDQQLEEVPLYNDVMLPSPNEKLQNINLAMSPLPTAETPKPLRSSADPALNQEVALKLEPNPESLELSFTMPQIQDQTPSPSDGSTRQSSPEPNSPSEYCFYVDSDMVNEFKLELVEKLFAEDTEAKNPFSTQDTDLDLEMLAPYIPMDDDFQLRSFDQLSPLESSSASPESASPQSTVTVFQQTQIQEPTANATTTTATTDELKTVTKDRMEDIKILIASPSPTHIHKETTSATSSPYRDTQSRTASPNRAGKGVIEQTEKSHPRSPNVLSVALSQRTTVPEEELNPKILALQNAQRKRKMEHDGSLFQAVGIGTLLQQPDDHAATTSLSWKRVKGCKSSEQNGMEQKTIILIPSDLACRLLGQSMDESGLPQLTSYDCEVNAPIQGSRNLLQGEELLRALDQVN
# full length HIF-1α double mutant P402A+P564G, sequence (chain, as listed by the source P402A P564G): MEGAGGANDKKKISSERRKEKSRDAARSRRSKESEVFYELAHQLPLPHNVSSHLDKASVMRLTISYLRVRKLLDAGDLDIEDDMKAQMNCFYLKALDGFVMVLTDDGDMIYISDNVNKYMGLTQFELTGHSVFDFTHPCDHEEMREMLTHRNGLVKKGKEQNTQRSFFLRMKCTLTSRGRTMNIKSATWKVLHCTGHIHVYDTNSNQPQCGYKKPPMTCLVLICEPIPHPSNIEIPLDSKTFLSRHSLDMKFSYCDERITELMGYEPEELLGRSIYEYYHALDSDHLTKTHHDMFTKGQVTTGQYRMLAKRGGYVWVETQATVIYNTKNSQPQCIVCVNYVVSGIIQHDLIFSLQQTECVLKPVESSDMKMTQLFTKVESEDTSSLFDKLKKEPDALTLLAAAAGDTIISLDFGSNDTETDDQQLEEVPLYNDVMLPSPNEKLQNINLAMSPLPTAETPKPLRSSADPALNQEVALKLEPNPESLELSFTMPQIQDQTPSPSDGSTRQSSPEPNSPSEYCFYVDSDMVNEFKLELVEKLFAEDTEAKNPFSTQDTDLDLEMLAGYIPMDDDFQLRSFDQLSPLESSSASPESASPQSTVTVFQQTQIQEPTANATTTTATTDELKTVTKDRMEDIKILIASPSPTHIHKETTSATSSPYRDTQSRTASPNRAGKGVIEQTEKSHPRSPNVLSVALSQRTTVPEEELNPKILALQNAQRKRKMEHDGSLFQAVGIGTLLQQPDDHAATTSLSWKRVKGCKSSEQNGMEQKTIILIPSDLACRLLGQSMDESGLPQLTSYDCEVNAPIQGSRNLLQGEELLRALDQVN
# full length HIF-1α P564G, sequence (chain, as listed by the source P564G): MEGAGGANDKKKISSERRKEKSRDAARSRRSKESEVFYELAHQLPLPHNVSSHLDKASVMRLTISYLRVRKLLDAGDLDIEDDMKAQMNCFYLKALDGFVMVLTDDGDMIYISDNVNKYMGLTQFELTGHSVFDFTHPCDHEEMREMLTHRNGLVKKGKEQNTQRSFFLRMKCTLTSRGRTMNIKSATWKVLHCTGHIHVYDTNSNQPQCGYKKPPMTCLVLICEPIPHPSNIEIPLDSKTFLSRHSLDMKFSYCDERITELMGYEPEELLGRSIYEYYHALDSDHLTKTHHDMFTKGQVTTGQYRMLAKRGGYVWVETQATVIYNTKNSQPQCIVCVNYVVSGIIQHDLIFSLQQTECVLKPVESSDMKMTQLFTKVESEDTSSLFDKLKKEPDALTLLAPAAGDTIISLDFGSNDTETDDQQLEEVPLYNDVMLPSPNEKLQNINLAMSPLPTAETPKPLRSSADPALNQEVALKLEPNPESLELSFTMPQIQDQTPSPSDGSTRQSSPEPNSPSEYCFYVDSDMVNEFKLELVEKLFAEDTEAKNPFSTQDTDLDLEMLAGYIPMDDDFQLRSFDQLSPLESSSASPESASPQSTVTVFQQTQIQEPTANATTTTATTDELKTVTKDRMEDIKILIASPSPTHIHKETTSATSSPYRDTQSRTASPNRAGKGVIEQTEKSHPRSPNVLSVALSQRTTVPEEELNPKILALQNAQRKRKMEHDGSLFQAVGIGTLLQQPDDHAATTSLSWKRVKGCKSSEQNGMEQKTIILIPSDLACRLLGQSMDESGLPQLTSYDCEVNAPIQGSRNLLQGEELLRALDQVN
Protein,promotion of VHL E3 capture (negative) [2],promotion of the HIFα/VHL E3 interaction (anti-HA IP with 786-0/VHL extract) [3],promotion of VHL E3 capture via the C-terminal (P564) site (full length HIF-1α P402A),further results
B1,,,,modification of HIF-1 read by HA.VHL-1 capture [1]: had no activity in these assays
B2,"No activity at all was observed with a double HIF-1α mutant, P402A P564G, that ablates both hydroxylation sites","With full length wild-type HIF-1α, striking activity was observed with rat SM-20 and all three human gene products",interaction through the C-terminal site could be promoted by all enzymes,"promotion of VHL E3 capture via the N-terminal (P402) site (full length HIF-1α P564G): VHL E3 capture was less efficient when only the N-terminal site (P402) was intact, and was only promoted by EGLN2 (PHD1) and EGLN1(PHD2)"
B3,"No activity at all was observed with a double HIF-1α mutant, P402A P564G, that ablates both hydroxylation sites","With full length wild-type HIF-1α, striking activity was observed with rat SM-20 and all three human gene products",interaction through the C-terminal site could be promoted by all enzymes,
B4,"No activity at all was observed with a double HIF-1α mutant, P402A P564G, that ablates both hydroxylation sites","With full length wild-type HIF-1α, striking activity was observed with rat SM-20 and all three human gene products",interaction through the C-terminal site could be promoted by all enzymes,
B5,,,,prolyl 4-hydroxylase activity (hydroxylation-coupled decarboxylation of 2-oxoglutarate) [4]: the HIF polypeptide showed no activity
B6,,,,modification of HIF-1 read by HA.VHL-1 capture [1]: had no activity in these assays
B7,,,,prolyl 4-hydroxylase activity (hydroxylation-coupled decarboxylation of 2-oxoglutarate) [4]: the HIF polypeptide showed no activity
